In the Human Domainome abundance scans (Beltran et al. 2025):

B1: Tumor protein 63, residues 545 to 610; numbered along this chain, Q9H3D4 (parent)
chain: TDCSIVSFLARLGCSSCLDYFTTQGLTTIYQIEHYSMDDLASLKIPEQFRHAIWKGILDHRQLHEF

Variants of: B1
Experiment: abundance fitness (aPCA) (normalised: wild type 0, dead -1); higher = more abundant; growth selection in yeast, the domain comes from the species named
Details: Homo sapiens

Abundance fitness of substitutions, site by site:
S7: D -0.056 | W -0.132 | T -0.012 | M -0.108 | Q -0.067 | E -0.024 | C -0.026 | I -0.234 | K -0.028 | Y -0.053 | P -0.113 | R -0.086 | H -0.069 | N -0.006 | G -0.045 | F -0.082 | L -0.137
G13: D 0.004 | N -0.013 | A -0.117 | L -0.438 | M -0.178 | H -0.174 | E -0.071 | F -0.45 | R -0.077 | Q -0.04 | P -0.935 | I -0.814
V6: C -0.111 | W -0.073 | I -0.034 | T 0.016 | E -0.067 | S 0.003 | R -0.012 | D -0.013 | F -0.06 | N -0.031 | G -0.032 | A 0.028 | Y -0.11 | P -0.077 | M -0.017 | K 0.009 | L -0.007
S4: W -0.224 | H -0.114 | T -0.04 | P -0.17 | L -0.038 | K -0.075 | V -0.632 | E -0.066 | D -0.05 | Y -0.164 | M -0.063 | C -0.16 | G -0.104 | F -0.158 | Q -0.078
A10: T -0.134 | Q -0.15 | Y -0.164 | G -0.1 | F -0.167 | H -0.16 | S -0.104 | K -0.092 | D -0.145 | W -0.18 | E -0.003 | I -0.203 | L -0.063 | C -0.214 | V -0.15 | N -0.146
R11: E -0.038 | N -0.093 | Q -0.08 | Y -0.221 | I -0.126 | F -0.268 | T -0.023 | D -0.09 | G -0.071 | H -0.127 | M -0.111 | C -0.155 | K -0.02 | P -0.133 | V -0.171
I5: T -0.479 | F -0.362 | M -0.021 | D -0.997 | Y -0.971 | S -0.856 | V -0.096 | P -1.04 | H -0.647 | E -0.976 | Q -0.973 | G -0.878 | L -0.005 | R -1.01 | K -0.921 | N -0.915
F8: W -0.024 | E -0.711 | I -0.272 | M -0.029 | P -0.938 | T -0.592 | C -0.583 | N -0.796 | H -0.41 | L -0.052 | S -0.822 | G -1.01 | Y -0.329 | K -0.961 | A -0.58 | Q -0.835 | R -0.918
L12: Y -0.048 | N -0.107 | C -0.087 | Q -0.074 | W -0.072 | K -0.146 | M -0.05 | A -0.068 | F -0.149 | T -0.06 | V -0.047 | R -0.112 | I 0.021 | P -0.726 | E -0.285 | G -0.648 | H -0.099 | S -0.119 | D -0.836
C3: V -0.15 | Y 0 | T -0.015 | S -0.011 | W -0.082
L9: W -0.955 | Q -1.03 | I -0.421 | P -0.928 | G -0.622 | E -0.666 | K -1 | N -0.814 | S -0.869 | R -0.83 | Y -0.783 | F -0.626 | T -1.04 | A -1 | H -1.02 | C -0.344 | D -0.474 | M -0.272
